# Experimental data from IntAct's records for PubMed 30496485.
# B1: Coiled-coil-helix-coiled-coil-helix domain-containing protein 2 (Homo sapiens), Q9Y6H1 (parent)
# chain: MPRGSRSRTSRMAPPASRAPQMRAAPRPAPVAQPPAAAPPSAVGSSAAAPRQPGLMAQMATTAAGVAVGSAVGHTLGHAITGGFSGGSNAEPARPDITYQEPQGTQPAQQQQPCLYEIKQFLECAQNQGDIKLCEGFNEVLKQCRLANGLA
# partner: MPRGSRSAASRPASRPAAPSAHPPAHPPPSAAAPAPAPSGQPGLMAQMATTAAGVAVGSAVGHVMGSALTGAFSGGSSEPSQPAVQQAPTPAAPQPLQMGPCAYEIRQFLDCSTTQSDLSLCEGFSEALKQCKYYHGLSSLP
# Variants of: B1
# Conditions: with chc10_human CHCHD10, Q8WYQ3
row,effect of a mutation on the interaction,Variant
1,disrupting interaction strength,T61I
2,disrupting interaction strength,R145Q
